Reference: US20180318418A1 (UNIQUEST, published 2018)

What was measured:
Assay in all cases: dot blot, peptide on PVDF membrane
[1] = target: T1, peptide 05/08 (BARF1 201-221) (Epstein-Barr virus)
T1 construct: Spotted on PVDF membrane for dot blot; also called 05/08201-221
T1 peptide: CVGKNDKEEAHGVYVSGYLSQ

peptide 08/08-2 = target: T2, peptide 08/08-2 (Epstein-Barr virus)
T2 construct: 8-mer derived from 08/08 (BARF1 27-40)
T2 peptide: TSYWRRVS

peptide 08/08-2′ = target: T3, peptide 08/08-2′ (Epstein-Barr virus)
T3 construct: 7-mer derived from 08/08′ (BARF1 28-38)
T3 peptide: TSYWRRV

[2] = target: T4, peptide 06/08 (BARF1 104-120) (Epstein-Barr virus)
T4 construct: Spotted on PVDF membrane for dot blot; also called 06/08104-120
T4 peptide: CRMKLGETEVTKQEHLS

Measured: binding result

B1: anti-BARF1 3D4 monoclonal antibody (antibody, V domains shown)
VH: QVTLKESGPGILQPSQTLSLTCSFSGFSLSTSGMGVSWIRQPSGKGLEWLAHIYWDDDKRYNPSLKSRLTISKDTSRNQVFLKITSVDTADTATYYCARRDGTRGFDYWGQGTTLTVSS
VL: QIVLTQSPAIMSASLGERVTMTCTATSSVSSSYLHWYQQKPGSSPKLWIYSTSNLASGVPARFSGSGSGTSYSLTISSMEAEDAATYYCHQYHRSPPWTFGGGTKLEIK
notes: also called 3D4 mAb; clone 3D4
no binding (tested: about 10 µg/spot): all assays above
